From US10912839B2, “Methods of treating cancer using compounds containing a vascular disrupting agent” (priority 2008, dated 2021)
Non-standard residues stand in square brackets, D forms with d. Residues, ends and D or L forms follow the SMILES beside them. No end group written: not given here. *: point of attachment. NH(Colchicin-10-yl) = COc1cc2c(c(OC)c1OC)-c1ccc(N*)c(=O)cc1[C@@H](NC(C)=O)CC2; FITC = O=C1OC2(c3ccc(O)cc3Oc3cc(O)ccc32)c2ccc(NC(=S)*)cc21; hPhe = N[C@@H](CCc1ccccc1)C(=O)O; Cit = NC(=O)NCCC[C@H](N)C(=O)O; βAla = NCCC(=O)O

Assays:
[1] = Ex vivo prodrug stability in normal mouse plasma (LC/MS/MS); settings: for stability in plasma and/or liver: alternative endcaps on MT-MMP prodrug; for stability in plasma: normal mouse plasma ex vivo
Excerpt: Prodrug cleavage and metabolism were detected using LC/MS/MS. • a.

[2] = Ex vivo prodrug stability in normal mouse liver homogenate (LC/MS/MS); assay type: in vitro ADME; settings: for half-life: mouse, tissue homogenate, murine liver homogenate, mean of four independent experiments, read-out: Liver t½; for stability in liver homogenate: normal mouse liver homogenate ex vivo
Excerpt: (§1) Liver was representative of all normal tissues analysed. (FIG. 5) • d.
(§2) Half lives are the mean taken from four independent experiments. Liver represent murine liver homogenate and tumour represents HT1080

[3] = Ex vivo prodrug metabolism in HT1080 tumour homogenate (LC/MS/MS); assay type: in vitro ADME, human; settings: for half-life: human, tissue homogenate, HT1080 tumour homogenate, mean of four independent experiments, read-out: Tumour t½
Excerpt: as §1, §2

[4] = Off-target toxicity by mouse body weight in antitumour study; assay type: in vivo, Balb/C mice
Method: (§3) ICT-2552 and ICT-2588 (‘prodrug’) were administered as a single dose via the intraperitoneal route to Balb/C mice bearing subcutaneous HT1080 xenografts. Each of the nine dosing groups comprised 8 mice. The anti-tumour effects of the compounds were assessed by determination of tumour volume and the existence of off-target toxicity was ascertained via monitoring mouse body weight.
(§4) The dosing groups evaluated ICT-2588 (prodrug) relative to the molar equivalent dose of ICT-2552 (warhead), and were: • 10% DMSO/oil (solvent control) • ICT-2588 at 37.5 mg/kg; 50.0 mg/kg; 62.5 mg/kg; 75.0 mg/kg • ICT-2552 at 7.5 mg/kg; 10.0 mg/kg; 12.5 mg/kg; 15 mg/kg Results
The weight of all mice was within the tolerated loss of 15% of bodyweight, therefore the compounds are not classified as toxic to the whole body system.

HT1080 xenografts = experiment: Dose response antitumour study, subcutaneous HT1080 xenografts; assay type: in vivo, Balb/C mice; settings: for Growth delay: vs control
Method: as §3, §4

[5] = Tissue levels of prodrug and VDA2 after intraperitoneal dosing of HT1080 tumour-bearing mice; assay type: in vivo; settings: for VDA2 levels in tumour following prodrug administration: HT1080 tumour; for prodrug accumulation in tissues / site of highest prodrug levels: HT1080 tumour-bearing mice
Excerpt: as §1

[6] = ICT-2552 10.0 mg/kg single i.p.
[7] = ICT-2552 12.5 mg/kg single i.p.
[8] = ICT-2552 15.0 mg/kg single i.p.

With `COc1cc2c(c(OC)c1OC)-c1ccc(NC(=O)[C@H](Cc3ccc(O)cc3)NC(=O)[C@H](CC(C)C)NC(=O)[C@H](Cc3ccc(O)cc3)NC(=O)[C@H](CCc3ccccc3)NC(=O)CNC(=O)[C@H](CCCNC(N)=O)NC(=O)[C@H](CO)NC(=O)[C@H](CCCNC(=N)N)NC(=O)[C@@H](CO)NC(=O)[C@@H](CO)NC(=O)[C@H](N)CO)c(=O)cc1[C@@H](NC(C)=O)CC2` [3×D-Serine] (H-[dS][dS][dS]RS[Cit]G[hPhe]YLY-{NH(Colchicin-10-yl)}) the “stability in plasma and/or liver” value [1] was “insufficiently stable”.

Compound `COc1cc2c(c(OC)c1OC)-c1ccc(NC(=O)[C@H](Cc3ccc(O)cc3)NC(=O)[C@H](CC(C)C)NC(=O)[C@H](C)NC(=O)[C@H](CCc3ccccc3)NC(=O)CNC(=O)[C@H](CCCNC(N)=O)NC(=O)[C@H](CO)NC(=O)[C@H](CCCNC(=N)N)NC(=O)CCNC(=S)Nc3ccc4c(c3)C(=O)OC43c4ccc(O)cc4Oc4cc(O)ccc43)c(=O)cc1[C@@H](NC(C)=O)CC2` [ICT3053] ({FITC-βAla}-RS[Cit]G[hPhe]ALY-{NH(Colchicin-10-yl)}) has a half-life [2] of 76 min and a half-life [3] of 17 min.

In the case of `COc1cc2c(c(OC)c1OC)-c1ccc(NC(=O)[C@H](Cc3ccc(O)cc3)NC(=O)[C@H](CC(C)C)NC(=O)[C@H](CO)NC(=O)[C@H](CCc3ccccc3)NC(=O)CNC(=O)[C@H](CCCNC(N)=O)NC(=O)[C@H](CO)NC(=O)[C@H](CCCNC(=N)N)NC(=O)CCNC(=S)Nc3ccc4c(c3)C(=O)OC43c4ccc(O)cc4Oc4cc(O)ccc43)c(=O)cc1[C@@H](NC(C)=O)CC2` [ICT3054] ({FITC-βAla}-RS[Cit]G[hPhe]SLY-{NH(Colchicin-10-yl)}), the half-life [2] is reported as 66 min and the half-life [3] is reported as 9 min.

In the case of `COc1cc2c(c(OC)c1OC)-c1ccc(NC(=O)[C@H](Cc3ccc(O)cc3)NC(=O)[C@H](CC(C)C)NC(=O)[C@H](CC(=O)O)NC(=O)[C@H](CCc3ccccc3)NC(=O)CNC(=O)[C@H](CCCNC(N)=O)NC(=O)[C@H](CO)NC(=O)[C@H](CCCNC(=N)N)NC(=O)CCNC(=S)Nc3ccc4c(c3)C(=O)OC43c4ccc(O)cc4Oc4cc(O)ccc43)c(=O)cc1[C@@H](NC(C)=O)CC2` [ICT3055] ({FITC-βAla}-RS[Cit]G[hPhe]DLY-{NH(Colchicin-10-yl)}), the half-life [2] is reported as 67 min and the half-life [3] is reported as 7 min.

`COc1cc2c(c(OC)c1OC)-c1ccc(NC(=O)[C@H](Cc3ccc(O)cc3)NC(=O)[C@H](CC(C)C)NC(=O)[C@H](CC(N)=O)NC(=O)[C@H](CCc3ccccc3)NC(=O)CNC(=O)[C@H](CCCNC(N)=O)NC(=O)[C@H](CO)NC(=O)[C@H](CCCNC(=N)N)NC(=O)CCNC(=S)Nc3ccc4c(c3)C(=O)OC43c4ccc(O)cc4Oc4cc(O)ccc43)c(=O)cc1[C@@H](NC(C)=O)CC2` [ICT3078] ({FITC-βAla}-RS[Cit]G[hPhe]NLY-{NH(Colchicin-10-yl)}) gave a half-life [2] of 76 min and a half-life [3] of 11 min.

`COc1cc2c(c(OC)c1OC)-c1ccc(NC(=O)[C@H](Cc3ccc(O)cc3)NC(=O)[C@H](CC(C)C)NC(=O)[C@H](CC(C)C)NC(=O)[C@H](CCc3ccccc3)NC(=O)CNC(=O)[C@H](CCCNC(N)=O)NC(=O)[C@H](CO)NC(=O)[C@H](CCCNC(=N)N)NC(=O)CCNC(=S)Nc3ccc4c(c3)C(=O)OC43c4ccc(O)cc4Oc4cc(O)ccc43)c(=O)cc1[C@@H](NC(C)=O)CC2` [ICT3080] ({FITC-βAla}-RS[Cit]G[hPhe]LLY-{NH(Colchicin-10-yl)}) gave a half-life [2] of 134 min and a half-life [3] of 48 min.

In the case of `COc1cc2c(c(OC)c1OC)-c1ccc(NC(=O)[C@H](Cc3ccc(O)cc3)NC(=O)[C@H](CC(C)C)NC(=O)[C@@H]3CCCN3C(=O)[C@H](CCc3ccccc3)NC(=O)CNC(=O)[C@H](CCCNC(N)=O)NC(=O)[C@H](CO)NC(=O)[C@H](CCCNC(=N)N)NC(=O)CCNC(=S)Nc3ccc4c(c3)C(=O)OC43c4ccc(O)cc4Oc4cc(O)ccc43)c(=O)cc1[C@@H](NC(C)=O)CC2` [ICT3097] ({FITC-βAla}-RS[Cit]G[hPhe]PLY-{NH(Colchicin-10-yl)}), the half-life [2] is reported as 110 min and the half-life [3] is reported as 24 min.

In the case of `COc1cc2c(c(OC)c1OC)-c1ccc(N)c(=O)cc1[C@@H](NC(C)=O)CC2` [ICT-2552, azademethylcolchicine], the “Maximum % weight loss” value ([4]; ICT-2552 7.5 mg/kg) is reported as 3%, the “day of maximum weight loss” value ([4]; ICT-2552 7.5 mg/kg) is reported as 4 days and the “Maximum % weight loss” value ([4]; ICT-2552 10.0 mg/kg) is reported as 6 (6) %. The “day of maximum weight loss” value ([4]; ICT-2552 10.0 mg/kg) was 6 (6) day, the “Maximum % weight loss” value ([4]; ICT-2552 12.5 mg/kg) was 6% and the “day of maximum weight loss” value ([4]; ICT-2552 12.5 mg/kg) was 1 days. The “Maximum % weight loss” value ([4]; ICT-2552 15.0 mg/kg) was 5%, the “day of maximum weight loss” value ([4]; ICT-2552 15.0 mg/kg) was 1 days and the “Mean time to RTV2” value (HT1080 xenografts; ICT-2552 7.5 mg/kg single i.p.) was 4.0 days. For the same compound, the “Median time RTV2” value (HT1080 xenografts; ICT-2552 7.5 mg/kg single i.p.) was 3.8 days, the Growth delay (HT1080 xenografts; ICT-2552 7.5 mg/kg single i.p.) was 1.6 days and the “Mean time to RTV2” value (HT1080 xenografts; [6]) was 4.4 days. For the same compound, the “Median time RTV2” value (HT1080 xenografts; [6]) was 4.2 days, the Growth delay (HT1080 xenografts; [6]) was 2.0 days and the “Mean time to RTV2” value (HT1080 xenografts; [7]) was 4.5 days. For the same compound, the “Median time RTV2” value (HT1080 xenografts; [7]) was 4.7 days, the Growth delay (HT1080 xenografts; [7]) was 2.5 days and the “Mean time to RTV2” value (HT1080 xenografts; [8]) was 4.1 days. For the same compound, the “Median time RTV2” value (HT1080 xenografts; [8]) was 4.1 days, the Growth delay (HT1080 xenografts; [8]) was 1.9 days and the “delay in tumour growth” value (HT1080 xenografts; all evaluated doses) was “significant delay in tumour growth”. For the same compound, the tumour response (HT1080 xenografts; all tested dose levels) was “Tumour responses were observed”.

In the case of `COc1cc2c(c(OC)c1OC)-c1ccc(NC(=O)[C@H](Cc3ccc(O)cc3)NC(=O)[C@H](CC(C)C)NC(=O)[C@H](Cc3ccc(O)cc3)NC(=O)[C@H](CCc3ccccc3)NC(=O)CNC(=O)[C@H](CCCNC(N)=O)NC(=O)[C@H](CO)NC(=O)[C@H](CCCNC(=N)N)NC(=O)CCNC(=S)Nc3ccc4c(c3)C(=O)OC43c4ccc(O)cc4Oc4cc(O)ccc43)c(=O)cc1[C@@H](NC(C)=O)CC2` [ICT-2588] ({FITC-βAla}-RS[Cit]G[hPhe]YLY-{NH(Colchicin-10-yl)}), the half-life [2] is reported as 149 min, the “stability in liver homogenate” value [2] is reported as “remained stable” and the “Maximum % weight loss” value ([4]; ICT-2588 37.5 mg/kg) is reported as 3 (3) %. For the same compound, the “day of maximum weight loss” value ([4]; ICT-2588 37.5 mg/kg) was 3 (3) day, the “Maximum % weight loss” value ([4]; ICT-2588 50.0 mg/kg) was 5% and the “day of maximum weight loss” value ([4]; ICT-2588 50.0 mg/kg) was 3 days. The “Maximum % weight loss” value ([4]; ICT-2588 62.5 mg/kg) was 4%, the “day of maximum weight loss” value ([4]; ICT-2588 62.5 mg/kg) was 3 days and the “Maximum % weight loss” value ([4]; ICT-2588 75.0 mg/kg) was 5%. For the same compound, the “day of maximum weight loss” value ([4]; ICT-2588 75.0 mg/kg) was 3 days, the stability in plasma [1] was “remained intact” and the “metabolism in tumour homogenate, high versus low MT-MMP” value ([3]; HT1080 (high MT-MMP) relative to MCF7 (low MT-MMP) homogenate) was “metabolised rapidly”. The half-life [3] was 33 min, the “VDA2 levels in tumour following prodrug administration” value [5] was “High concentrations” and the “prodrug accumulation in tissues” value [5] was “accumulated and was detected in all tissues analysed”. For the same compound, the “site of highest prodrug levels” value [5] was “Highest prodrug-2 levels were observed in the tumour”, the “VDA2 in plasma following prodrug administration” value ([5]; plasma) was “undetectable” and the “VDA2 level in tumour relative to normal tissues” value ([5]; tumour vs normal tissues) was 10 times higher. For the same compound, the “levels of prodrug-2 and VDA2 in tumour 48 hours post administration” value ([5]; tumour, 48 hours) was “still detectable”.

For `COc1cc2c(c(OC)c1OC)-c1ccc(NC(=O)[C@H](Cc3ccc(O)cc3)NC(=O)[C@H](CC(C)C)NC(=O)[C@H](Cc3ccc(O)cc3)NC(=O)[C@H](CCc3ccccc3)NC(=O)CNC(=O)[C@H](CCCNC(N)=O)NC(=O)[C@@H]3CCCN3C(=O)[C@H](CCC(=O)O)NC(=O)CCNC(=S)Nc3ccc4c(c3)C(=O)OC43c4ccc(O)cc4Oc4cc(O)ccc43)c(=O)cc1[C@@H](NC(C)=O)CC2` [Prodrug-1] ({FITC-βAla}-EP[Cit]G[hPhe]YLY-{NH(Colchicin-10-yl)}), the “stability in liver homogenate” value [2] was “stable”, the stability in plasma [1] was “stable” and the “metabolism in tumour homogenate” value ([3]; HT1080 xenograft homogenate ex vivo) was “metabolised”. The “prodrug level after 24 hours post-dosing” value ([5]; 24 hours) was “not detectable”, the “VDA2 levels in tumour following prodrug administration” value [5] was “detected at high levels” and the “prodrug accumulation in tissues” value [5] was “accumulated and was detected in all tissues analysed”. For the same compound, the “site of highest prodrug levels” value [5] was “Highest prodrug-1 levels were observed in the tumour”, the “VDA2 levels in normal tissues following prodrug administration” value ([5]; normal tissues) was “detectable at low levels” and the “VDA2 in normal tissues after 24 hours post-dosing” value ([5]; normal tissues, 24 hours) was “undetectable”. For the same compound, the “VDA2 in tumour after 24 hours post-dosing” value ([5]; tumour, 24 hours) was “still detectable at high levels”.

With “Quinic acid+2×D-Serine: conjugate based on MT-MMP prodrug (SEQ ID NO: 4) with quinic acid+2×D-Serine endcap (RS[Cit]G[hPhe]YLY; not fully specified (N-terminus); also: quinic acid + 2×D-Ser endcap, end not given here)” the “stability in plasma and/or liver” value [1] was “insufficiently stable”.
